Laboratory results: patent US20090181444A1, “MODIFIED CARBOHYDRATE PROCESSING ENZYME” (priority 2002, published 2009)
Where a chain is given by its changes, count along the chain named. Names and notes keep the numbering of the source. Where a name gives a salt, the structure may show the parent alone.

B1: E432C: SSβG point mutant Glu-432→Cys (protein, listed as Sulfolobus solfataricus)
chain: MYSFPNSFRFGWSQAGFQSEMGTPGSEDPNTDWYKWVHDPENMAAGLVSGDLPENGPGYWGNYKTFHDNAQKMGLKIARLNVEWSRIFPNPLPRPQNFDESKQDVTEVEINENELKRLDEYANKDALNHYREIFKDLKSRGLYFILNMYHWPLPLWLHDPIRVRRGDFTGPSGWLSTRTVYEFARFSAYIAWKFDDLVDEYSTMNEPNVVGGLGYVGVKSGFPPGYLSFELSRRHMYNIIQAHARAYDGIKSVSKKPVGIIYANSSFQPLTDKDMEAVEMAENDNRWWFFDAIIRGEITRGNEKIVRDDLKGRLDWIGVNYYTRTVVKRTEKGYVSLGGYGHGCERNSVSLAGLPTSDFGWEFFPEGLYDVLTKYWNRYHLYMYVTENGIADDADYQRPYYLVSHVYQVHRAINSGADVRGYLHWSLADNYCWASGFSMRFGLLKVDYNTKRLYWRPSALVYREIATNGAITDEIEHLNSVPPVKPLRH
B2: M439C: SSβG point mutant Met-439→Cys (protein)
chain: B1 chain with C432E, M439C
B3: W433C: SSβG point mutant Trp-433→Cys (protein, listed as Sulfolobus solfataricus)
chain: B1 chain with C432E, W433C
B4: C344S: SsβG mutant C344S, side chain at position 439 —CH2CH2SCH3 (protein)
chain: B1 chain with C344S, C432E

Experiments:
[1] = Hydrolysis of 4-methylumbelliferyl-β-D-glucoside, initial rates; format: biochemical; conditions: 80° C., pH 6.5; for Km / kcat: 4-MUGlc
Method: (§1) Parameters were determined by the method of initial rates. Activity was measured in time course assays of the hydrolysis of 4-methylumbelliferyl-β-D-glycosides (β-D-gluco, β-D-galacto, β-D-fuco, β-D-manno, β-D-xylo, β-D-glucurono) at 5-15 concentrations (0.001-1.5 mM) incubated at 80° C. in 50 mM sodium phosphate buffer, pH 6.5. Reactions were terminated at 2, 5, 10, 15 min by the addition of 100 μl of ice cold 1M NazCO3, pH 10 and analyzed (Labsystems Fluoroscan Ascent plate reader, […]). KM and kcat were derived by fitting the initial rates to hyperbolic Michaelis-Menten curves using GraFit 4 (Erithacus Software Ltd, Staines, UK).
(§2) Determination of the Michaelis-Menten parameters for the WT and mutant enzymes was performed at pH 6.5 at 80° C. for a broad range of representative, fluorophore-containing 4-methylumbelliferyl glycoside substrates, which allowed activities to be determined with a high degree of sensitivity (Table). Under these optimized assay conditions, the glucoside (Glc), galactoside (Gal) and fucoside (Fuc) substrates were hydrolysed well by SSβG-WT, but the xyloside (Xyl) substrate was hydrolysed relatively poorly (approx. 3% of turnover as determined by kcat compared with β-D-glucoside). […] In all cases the absolute D-stereospecificity and β-stereoselectivity of SSβG was maintained and no activity was detected towards L- or α-glycoside substrates.

[2] = Hydrolysis of 4-methylumbelliferyl-β-D-galactoside, initial rates; format: biochemical; conditions: 80° C., pH 6.5; for Km / kcat: 4-MUGal
Method: as §1, §2

[3] = Hydrolysis of 4-methylumbelliferyl-β-D-fucoside, initial rates; format: biochemical; conditions: for Km / kcat: 4-MUFuc, 80° C., pH 6.5
Method: as §1, §2

[4] = Hydrolysis of 4-methylumbelliferyl-β-D-mannoside, initial rates; format: biochemical; conditions: for Km / kcat: 4-MUMan, 80° C., pH 6.5
Method: as §1, §2

[5] = Hydrolysis of 4-methylumbelliferyl-β-D-xyloside, initial rates; format: biochemical; conditions: for Km / kcat: 4-MUXyl, 80° C., pH 6.5
Method: as §1, §2

[6] = Hydrolysis of 4-methylumbelliferyl-β-D-glucuronide, initial rates; format: biochemical; conditions: for kcat / Km: 4-MUGlcA, 80° C.
Method: as §1, §2

[7] = Parallel one-pot glycoside synthesis (transglycosylation to MeOH); format: biochemical; conditions: 8 h, 50° C., 1:9 MeOH:phosphate buffer pH 6.5
Method: Enzyme (WT, […] or E432C, 1 mg) was added to a mixed solution (1 mL) of para-nitrophenyl (pNP) β-D-manno-, galacto-, gluco- and xylo- pyranosides (0.03 mmol of each) in 1:9 MeOH:phosphate buffer (pH 6.5) and incubated at 50° C. for 45 min (WT), 4 h (WT), 8 h (W433C, E432C). After this time the solutions were extracted with EtOAc to remove para-nitrophenol and passed through short Sephadex and Celite:Graphite (1:1) columns to remove protein, pNP-glycoside and remaining para-nitrophenol. Solvent was removed and product mixtures were analysed by ^1H NMR and ESMS. Yields based on donor were calculated from integration of anomeric proton resonances in ^1H NMR (D2O, 500 MHz): α-Gal (δ 5.12, d, […]), α-Glc (δ 5.08, d, 3.8 Hz), α-Xyl (δ 5.04, d, J=3.4 Hz), α-Man (δ 5.03, d, J=1.8 Hz), β-Man (δ 4.75, s), β-Glc (δ 4.49, d, J=8.0 Hz), P-Gal (δ 4.45, d, 7.9 Hz), Me-β-Man (δ 4.44, s), β-Xyl (δ 4.42, d, J=7.8 Hz), Me-β-Glc (δ 4.23, d, J 8.1 Hz), Me-β-Xyl (δ 4.18, d, J=7.8 Hz), Me-β-Gal (δ 4.17, d, J=8.0 Hz).
Scheme 1: Parallel glycoside syntheses using SSβG-WT, -E432C and -W433C as catalysts. […] Such balanced libraries are not produced by SSβG-WT even under varying reaction times.

[8] = Substrate specificity compared across 4-methylumbelliferyl-β-D-glycosides; format: biochemical
Method: as §1, §2

[9] = Kinetic assay with p-nitrophenyl β-D-galactopyranoside, absorbance at 405 nm; format: biochemical; conditions: pNPGal, 45° C., pH 6.5 phosphate buffer, averaged over 3 runs, except * 2 runs
Method: (§3) The kinetic activity of SsδG was assessed using ultra-violet/visible spectroscopy. Cleavage of the glycosidic bond of the nitrophenyl sugar analogue releases a chromophore (Scheme 18), either p-nitrophenol or o-nitrophenol.
(§4) The absorbance of these chromophores at 405 nm was continuously measured at regular time intervals, and the Beer-Lambert Law used to calculate the chromophore concentration at each of these time intervals.
(§5) In order to use this equation the extinction coefficient, ∈, of both p-nitrophenol and o-nitrophenol were calculated. Enzyme kinetic parameters were assessed using the initial rates method. The gradient of a plot of chromophore concentration against time gave the initial rate of reaction at a series of substrate concentrations (0.05-10 mM). Kinetic parameters were calculated by regression analysis of the kinetic data on the Michaelis-Menten Model (Fersht, A., Enzyme Structure and Mechanism, W.H. Freeman and Company, New York (1985)). The initial rate of reaction was measured. This model is valid when [substrate]>>[enzyme], which are initial rate conditions.
(§6) KM and νmax were calculated from non-linear Michaelis-Menten and linear Lineweaver-Burk plots. From these values, kcat and kcat/KM were calculated and compared.
(§7) KM=νmax/2, it is the concentration of substrate at which half the active sites are filled. Higher KM values correspond to weaker binding and lower KM values correspond to stronger binding kcat, the turnover number is the number of substrate molecules which are converted to product when the enzyme is saturated with substrate and ν (rate) is maximised. Given both of these considerations, binding and rate, kcat/KM is typically as a measure of the overall relative activity of the enzyme. To allow comparison of the activity of the enzymes, ln({kcat/KM}mutant/{kcat/KM}WT) was calculated for each enzyme-substrate combination, to give overall activity relative to WT.
Substrate solutions (concentration 10 mM in 50 mM pH 6.5 phosphate buffer) were prepared. Kinetic assays were conducted in a 96-well flat bottom microtitre plate. Eight substrate concentrations were chosen for the assay from the range 0.05 mM to 10 mM (prepared from 10 mM stock solution), based on previous experimental experience of the kinetics of each enzyme (default range 0.05 mM to 2.00 mM)*. The enzyme stock solution (˜1 mgmL^−1) was diluted between 16- and 80-fold depending on the kinetic parameters determined*. The enzyme solution (496 µL) was dispensed into a 1.5 mL sealed Eppendorf tube. Into eight further Eppendorf tubes a portion of each substrate solution (650 μL) was dispensed. The tubes were incubated in a Techni Dri Block at 45° C. Simultaneously a 96-well flat bottom microtitre plate was incubated at 45° C. in a plate reader. […] The plate containing the enzyme and substrate solutions was then incubated in the plate reader at 45° C. to allow equilibration. […] Release of p-nitrophenol/o-nitropbenol was measured by absorbance at […], with an automix of 3 s before the first read and Is between every subsequent read. The run time chosen was between 6 min and 10 min*, and readings were taken at intervals of between 6 s and 10 s*.
(§8) A graph of concentration of the released chromophore (either pNP or oNP) against time was drawn for each concentration using Microsoft Excel. […] These gradients were entered into Grafit, which calculated KM and νmax from the Michelis-Menten and Lineweaver-Burk plots. From these kcat and kcat/KM could be calculated. […]

[10] = Kinetic assay with o-nitrophenyl β-D-galactopyranoside-6-phosphate, absorbance at 405 nm; format: biochemical; conditions: oNPGalP6, 45° C., pH 6.5 phosphate buffer; averaged over 3 runs, except * 2 runs
Method: as §3, §4, §5, §6
as §7, with “Given both of these considerations, binding and rate, kcat/KM is typically as a measure of the overall relative activity of the enzyme.” left out
Substrate solutions (concentration 10 mM in 50 mM pH 6.5 phosphate buffer) were prepared. […] The enzyme stock solution (˜1 mgmL^−1) was diluted between 16- and 80-fold depending on the kinetic parameters determined*. […] Simultaneously a 96-well flat bottom microtitre plate was incubated at 45° C. in a plate reader. […] The plate containing the enzyme and substrate solutions was then incubated in the plate reader at 45° C. to allow equilibration. […] Release of p-nitrophenol/o-nitropbenol was measured by absorbance at […], with an automix of 3 s before the first read and Is between every subsequent read. The run time chosen was between 6 min and 10 min*, and readings were taken at intervals of between 6 s and 10 s*.
as §8

Molecule	melting point	Km [1]	kcat [1]	Glc kcat/KM reduction relative to WT [1]	Km [2]	kcat [2]	Gal kcat/KM reduction relative to WT [2]	Km [3]	kcat [3]	Km [4]	kcat [4]	Km [5]	kcat [5]	kcat ([6]; pH 6.5)	Yield of Products, product 1 (β-glycoside of Glc) [7]	Yield of Products, product 2 (β-glycoside of Gal) [7]	Yield of Products, product 3 (β-glycoside of Man) [7]	Yield of Products, product 4 (β-glycoside of Xyl) [7]	Yield of Products, product 5 [7]	Yield of Products, product 6 [7]	other results
O=[N+]([O-])c1ccccc1O[C@@H]1O[C@H](COP(=O)(O)O)[C@H](O)[C@H](O)[C@H]1O (as salt: ammonium) [Enzyme 17, o-nitrophenyl β-D-galactopyranoside 6-phosphate]	181 to 183.1 °C	–	–	–	–	–	–	–	–	–	–	–	–	–	–	–	–	–	–	–	–
CS(=O)(=S)OCCC(=O)O (stereo not drawn) [Enzyme 16, 2-carboxyethyl methanethiosulfonate]	44 to 46 °C	–	–	–	–	–	–	–	–	–	–	–	–	–	–	–	–	–	–	–	–
B1	–	340 ± 70 µM	5.1 ± 0.5 s⁻¹	200 fold	470 ± 140 µM	5.4 ± 0.8 s⁻¹	130 fold	340 ± 40 µM	18 ± 1 s⁻¹	900 ± 260 µM	2.8 ± 0.7 s⁻¹	1260 ± 210 µM	2.8 ± 0.3 s⁻¹	NAD	22%	24%	14%	17%	7%	9%	kcat (Man) increase relative to WT [4]: 2 fold; activity towards GlcA ([6]; pH 6.5): no detectable activity; Yield of Products, product 7 [7]: 3%; Yield of Products, product 8 [7]: 4%; kcat values for Glc,Gal,Xyl,Man substrates [8]: 2.8 to 5.4 s⁻¹
B2	–	68 ± 28 µM	190 ± 40 s⁻¹	–	83 ± 16 µM	94 ± 11 s⁻¹	–	23 ± 5 µM	91 ± 8 s⁻¹	42 ± 15 µM	2.3 ± 0.4 s⁻¹	68 ± 7 µM	9.3 ± 0.2 s⁻¹	1.3 ± 0.4 s⁻¹	–	–	–	–	–	–	kcat/KM for Fuc lower than WT [3]: 1.8 fold; kcat/KM for Xyl higher than WT [5]: 4.7 fold; absolute increase in Xyl activity ([5]; relative to WT): 5 fold; kcat/KM for GlcA higher than WT [6]: 1.5 fold; Km ([6]; pH 6.5, read-out: Km): 1400 ± 600 µM; increase in Xyl over Fuc specificity ([8]; relative to WT): 10 fold
B3	–	1610 ± 350 µM	33 ± 5 s⁻¹	140 fold	2200 ± 1200 µM	14 ± 6 s⁻¹	230 fold	410 ± 90 µM	31 ± 3 s⁻¹	180 ± 20 µM	0.92 ± 0.05 s⁻¹	590 ± 190 µM	1.5 ± 0.3 s⁻¹	NAD	36%	18%	8%	13%	11%	6%	kcat (Xyl) lowering relative to WT [5]: 2.9 fold; Km ([6]; pH 6.5): NAD^; Yield of Products, product 7 [7]: 3%; Yield of Products, product 8 [7]: 5%; broadening of Gal:Man stereospecificity relative to WT [8]: 25 fold; specificity range of kcat/KM for Glc:Gal:Xyl:Man [8]: 8 fold
B4	–	–	–	–	–	–	–	–	–	–	–	–	–	–	–	–	–	–	–	–	kcat [9]: 4.16 s⁻¹; Km ([9]; read-out: KM): 475 µM; Km [10]: 3590 µM; kcat [10]: 8.42 s⁻¹
